The test concerns the target T1, recombinant His-p53 (UniProt P04637 1-393).
T1 construct: p53 from pET15b-p53 (Addgene plasmid 24859); also called pET15b-p53; source: recombinant, pET15b-p53 (Addgene)
Nature of the test: pull-down; GST pulldown: 100 μg recombinant GST-PPIL2 protein with 100 μg recombinant His-p53 and MagneGST glutathione beads overnight at 4°C; washes with TENT buffer (1% Triton X-100, 140 mM NaCl, 2 mM EDTA, 20 mM Tris pH 8.0). Conditions: both partners purified.

T1 sequence (P04637 whole entry): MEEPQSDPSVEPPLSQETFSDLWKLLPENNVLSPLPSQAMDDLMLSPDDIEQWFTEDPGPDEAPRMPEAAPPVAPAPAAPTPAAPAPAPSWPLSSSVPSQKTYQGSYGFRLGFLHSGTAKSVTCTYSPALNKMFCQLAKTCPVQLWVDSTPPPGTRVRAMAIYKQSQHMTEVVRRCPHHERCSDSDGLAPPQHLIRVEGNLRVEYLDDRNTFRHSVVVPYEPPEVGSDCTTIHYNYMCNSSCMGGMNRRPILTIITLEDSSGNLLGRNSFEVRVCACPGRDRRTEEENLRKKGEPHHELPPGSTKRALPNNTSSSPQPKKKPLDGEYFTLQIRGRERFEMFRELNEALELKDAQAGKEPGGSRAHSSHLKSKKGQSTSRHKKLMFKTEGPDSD

B1: recombinant GST-PPIL2-U-box (domain or fragment, UniProt Q13356 1-190, looked up)
chain: MGKRQHQKDKMYITCAEYTHFYGGKKPDLPQTNFRRLPFDHCSLSLQPFVYPVCTPDGIVFDLLNIVPWLKKYGTNPSNGEKLDGRSLIKLNFSKNSEGKYHCPVLFTVFTNNTHIVAVRTTGNVYAYEAVEQLNIKAKNFRDLLTDEPFSRQDIITLQDPTNLDKFNVSNFYHVKNNMKIIDPDEEKAK
notes: peptidylprolyl isomerase-like 2 (PPIL2), U-box domain construct, residues 1-190; the tie of 1-190 to the U-box goes by the order of the list; also called GST-PPIL2 (1-190); U-box domain of PPIL2; source: recombinant, prokaryotic expression vector pGEX6p-3
For B1, the binding result is listed as “binds”.

For the origin of these results see publication PMC12208539, “PPIL2 is a target of the JAK2/STAT5 pathway and promotes myeloproliferation via degradation of p53” (The Journal of Clinical Investigation, 2025).
